Measured values from US20240352445A1 (published 2024).
Residue numbers refer to the chain shown, from its start. Like-named read-outs stand apart in the source and are kept apart here.

B1: rabbit monoclonal antibody C-A11 (antibody, V domains shown)
VH: QSLEESGGRLVTPGTPLTLTCTVSGFSLSTYAMSWVRQAPGKGLEWIGVIASNADTYYASWAKGRITISKTSTTVDLKITSPTTEDTATYFCARHPGSAGYGYAVYYAMDPWGPGTLVTVSS
VL: AIEMTQSPSSLAASVGDTVTITCKASEDIRYGLNWYQQKLGIAPKLLIYGANTLEAGVPSRFSGSGSETDYTLTISSVQAEDAGIYYCQQGYSTPLTFGAGTKVEIK
B2: LxA3-E4 (antibody, V domains shown)
VH: EVQLVESGGGLVQPGGSLRLSCEASGFTFPNQAMTWVRQAPGKGLEWIGVIASNADTYYASWAKGRFTISRDNSKNTLYLQMNSLRAEDTAVYYCARHPGSAGYGYGHYYAMDPWGQGTLVTVSS
VL: DIQMTQSPSSLSASVGDRVTITCQASENIRYAINWYQQKPGKAPKLLIYGATYRDEGVPSRFSGSGSGTDYTLTISSLQPEDFATYYCQQGYVVPNSFGGGTKVEIK
B3: LxA3-B11 (antibody, V domains shown)
VH: B2 VH
VL: DIQMTQSPSSLSASVGDRVTITCLASEQAHYAINWYQQKPGKAPKLLIYGTSLLAEGVPSRFSGSGSGTDFTLTISSLQPEDFATYYCQQGYIVPISFGGGTKVEIK
B4: humanized antibody hN2Y (antibody, V domains shown)
VH: B2 VH with E23T, A24V, T28S, F29L, P30S, N31T, Q32Y, T35S, G107A, H108V
VL: DIQMTQSPSSLSASVGDRVTITCKASEDIRYGLNWYQQKPGKAPKLLIYGANTLEAGVPSRFSGSGSGTDYTLTISSLQPEDFATYYCQQGYSTPLTFGGGTKVEIK
B5: humanized antibody hN2F (antibody, V domains shown)
VH: B2 VH with E23T, A24V, T28S, F29L, P30S, N31T, Q32Y, T35S, G107A, H108V
VL: B4 VL with Y71F

Assays:
[1] = biological target: T1, SARS-CoV-2 spike protein trimer, Beta (B.1.351) variant (SARS-CoV-2, UniProt P0DTC2 16-1213)
[2] = biological target: SARS-CoV-2 spike protein trimer, Gamma (P.1) variant (SARS-CoV-2, UniProt P0DTC2 16-1213)
[3] = biological target: SARS-CoV-2 spike protein trimer, Kappa (B.1.617.1) variant (SARS-CoV-2, UniProt P0DTC2 16-1213)
[4] = biological target: SARS-CoV-2 spike protein trimer, Alpha (B.1.1.7) variant (SARS-CoV-2, UniProt P0DTC2 16-1213)
[5] = biological target: SARS-CoV-2 spike protein trimer, Epsilon (B.1.429) variant (SARS-CoV-2, UniProt P0DTC2 16-1213)
[6] = biological target: T2, SARS-CoV-2 spike protein trimer, Omicron (B.1.1.529) variant (SARS-CoV-2, UniProt P0DTC2 16-1213); experiment: flow
[7] = biological target: T1, SARS-CoV-2 spike protein trimer, Beta …; experiment: BLI
[8] = biological target: T1, SARS-CoV-2 spike protein trimer, Beta …; experiment: BLI; remark: listed apart in the source
[9] = biological target: T2, SARS-CoV-2 spike protein trimer, …; experiment: BLI
[10] = biological target: T2, SARS-CoV-2 spike protein trimer, …; experiment: BLI; remark: listed apart in the source
[11] = biological target: T2, SARS-CoV-2 spike protein trimer, …; experiment: BLI; remark: listed apart in the source
[12] = biological target: T2, SARS-CoV-2 spike protein trimer, …; experiment: ELISA
[13] = biological target: SARS-CoV-2 spike protein trimer, Delta (B.1.617.2) variant (SARS-CoV-2, UniProt P0DTC2 16-1213); experiment: ELISA
[14] = biological target: SARS-CoV-2 spike protein trimer, Omicron (BA.2) variant (SARS-CoV-2, UniProt P0DTC2 16-1213); experiment: ELISA

Binder	IC50 [1] [µg/mL]	IC50 [2] [µg/mL]	IC50 [3] [µg/mL]	IC50 [4] [µg/mL]	IC50 [5] [µg/mL]	IC50 [6] [µg/mL]	Kd [7] [nM]	Kd [8] [nM]	Kd [9] [nM]	Kd [10] [nM]	Kd [11] [nM]	IC50 [12] [µg/mL]	IC50 [13] [µg/mL]	IC50 [14] [µg/mL]
B1	0.0218	0.0548	0.0141	0.0495	0.00314	> 0.5	0.0404	0.0404	–	–	–	–	–	–
B2	–	–	–	–	–	–	–	–	< 0.001	–	–	–	–	–
B3	–	–	–	–	–	–	–	–	0.0449	–	–	–	–	–
B4	0.0347	0.0588	0.0117	0.0704	0.0184	–	0.193	0.193	–	0.123	0.123	0.44	0.00419	0.159
B5	1.29	2.18	0.0589	0.0561	0.0101	> 0.5	–	–	–	–	–	–	–	–
